The record followed here is doi:10.1101/2025.11.17.688803.

This assay addresses endogenous LRBA of mouse embryonic fibroblasts (mouse (endogenous in MEFs)) (UniProt Q9ESE1). In words: SEC.

As for “endogenous LRBA of mouse embryonic fibroblasts (from UniProt Q9ESE1 1-2856) (natural protein)”, the stoichiometry N turned out to be 2.
